Several values for one entry are separate records, joined by “and”; a condition that tells them apart may be missing. Identical values can stand only once.
Key:
Experiment in all cases: purified protein, by the assay type
Conditions in all cases: other: O2 consumption, 5.0 mM ascorbate, pH 6.0, 37 °C
[1] = substrate: CC(=O)NCC(=O)NCC(=O)O
[2] = substrate: O=C(O)CNC(=O)c1ccc(Br)cc1
[3] = substrate: CC(C)(C)OC(=O)NCC(=O)O
[4] = substrate: O=C(O)CNC(=O)/C=C/c1ccccc1
[5] = substrate: Cc1ccc(C(=O)NCC(=O)O)cc1
[6] = substrate: O=C(O)CNC(=O)c1ccc(Cl)cc1
[7] = substrate: CCCc1ccc(C(=O)NCC(=O)O)cc1
[8] = substrate: O=C(O)CNC(=O)CSc1ccccc1
[9] = substrate: O=C(O)CNC(=O)[C@@H]1CCC(=O)N1
[10] = substrate: O=C(O)CNC(=O)c1cccc(Cl)c1
[11] = substrate: O=C(O)CNC(=O)CCCc1ccccc1
[12] = substrate: C[C@@H](NC(=O)OCc1ccccc1)C(=O)O
[13] = substrate: O=C(O)CNC(=O)CCCCc1ccccc1
[14] = substrate: Cc1ccccc1C(=O)NCC(=O)O
[15] = substrate: O=C(O)CNC(=O)Nc1ccccc1
[16] = substrate: O=C(O)CNC(=O)c1ccccc1
[17] = substrate: O=C(O)CNC(=O)CCc1ccccc1
[18] = substrate: Nc1ccccc1C(=O)NCC(=O)O
[19] = substrate: Nc1ccc(C(=O)NCC(=O)O)cc1
[20] = substrate: O=C(O)CNC(=O)Cc1ccccc1
[21] = substrate: O=C(O)CNC(=O)OCc1ccccc1
[22] = substrate: O=C(O)CNC(=O)c1ccc([N+](=O)[O-])cc1
[23] = substrate: O=C(O)CNC(=O)CNC(=O)c1ccc([N+](=O)[O-])cc1
[24] = substrate: C[C@@H](NC(=O)c1ccccc1)C(=O)O
[25] = substrate: CC(C)(C)OC(=O)NCC(=O)NCC(=O)O
[26] = substrate: Cc1cccc(C(=O)NCC(=O)O)c1
[27] = substrate: O=C(O)CNC(=O)c1ccccc1O

B1: rat PAM (Rattus norvegicus) (protein)
chain: FKETTRSFSNECLGTIGPVTPLDASDFALDIRMPGVTPKESDTYFCMSMRLPVDEEAFVIDFKPRASMDTVHHMLLFGCNMPSSTGSYWFCDEGTCTDKANILYAWARNAPPTRLPKGVGFRVGGETGSKYFVLQVHYGDISAFRDNHKDCSGVSVHLTRVPQPLIAGMYLMMSVDTVIPPGEKVVNADISCQYKMYPMHVFAYRVHTHHLGKVVSGYRVRNGQWTLIGRQNPQLPQAFYPVEHPVDVTFGDILAARCVFTGEGRTEATHIGGTSSDEMCNLYIMYYMEAKYALSFMTCTKNVAPDMFRTIPAEANIPIPVKPDMVMMHGHHKEAENKEKSALMQQPKQGEEEVLEQDFHVEEELDWPGVYLLPGQVSGVALDSKNNLVIFHRGDHVWDGNSFDSKFVYQQRGLGPIEEDTILVIDPNNAEILQSSGKNLFYLPHGLSIDTDGNYWVTDVALHQVFKLDPHSKEGPLLILGRSMQPGSDQNHFCQPTDVAVEPSTGAVFVSDGYCNSRIVQFSPSGKFVTQWGEESSGSSPRPGQFSVPHSLALVPHLDQLCVADRENGRIQCFKTDTKEFVREIKHASFGRNVFAISYIPGFLFAVNGKPYFGDQEPVQGFVMNFSSGEIIDVFKPVRKHFDMPHDIVASEDGTVYIGDAHTNTVWKFTLTEKMEHRSV
[1]
  kcat: 8.9 ± 0.2 s⁻¹
  kcat/Km: 5900 ± 200 M⁻¹ s⁻¹
[2]
  Km: 520 ± 60 µM
  kcat/Km: 4900 ± 400 M⁻¹ s⁻¹
[3]
  Km: 3700 ± 200 µM
  kcat: 6.3 ± 0.3 s⁻¹
  kcat/Km: 1700 ± 50 M⁻¹ s⁻¹
[4]
  Km: 230 ± 20 µM
  kcat: 8.4 ± 0.3 s⁻¹
  kcat/Km: 36000 ± 3000 M⁻¹ s⁻¹
[5]
  Km: 1800 ± 200 µM
  kcat: 5.7 ± 0.3 s⁻¹
  kcat/Km: 3200 ± 200 M⁻¹ s⁻¹
[6]
  Km: 620 ± 40 µM
  kcat: 4.1 ± 0.1 s⁻¹
  kcat/Km: 6600 ± 200 M⁻¹ s⁻¹
[7]
  Km: 1200 ± 200 µM
  kcat: 5.1 ± 0.4 s⁻¹
  kcat/Km: 4200 ± 600 M⁻¹ s⁻¹
[8]
  Km: 190 ± 20 µM
  kcat: 4.6 ± 0.2 s⁻¹
  kcat/Km: 25000 ± 1000 M⁻¹ s⁻¹
[9]
  Km: 300 µM and 310 ± 30 µM
[10]
  Km: 2200 ± 200 µM
  kcat: 7.8 ± 0.3 s⁻¹
  kcat/Km: 3600 ± 200 M⁻¹ s⁻¹
[11]
  Km: 160 ± 20 µM
  kcat: 11 ± 0.4 s⁻¹
  kcat/Km: 70000 ± 7000 M⁻¹ s⁻¹
[12]
  Km: 35000 ± 5000 µM
  kcat: 1.4 ± 0.1 s⁻¹
  kcat/Km: 41 ± 5 M⁻¹ s⁻¹
[13]
  kcat: 12 ± 0.4 s⁻¹
  kcat/Km: 76000 ± 4000 M⁻¹ s⁻¹
[14]
  Km: 4300 ± 300 µM
  kcat: 7.9 ± 0.3 s⁻¹
  kcat/Km: 1800 ± 40 M⁻¹ s⁻¹
[15]
  Km: 0.36 ± 0.08 0.45 ± 0.05 mM
  kcat: 9.7 ± 0.9 s⁻¹
  kcat/Km: 27000 ± 4000 M⁻¹ s⁻¹
[16]
  Km: 1300 ± 40 µM
  kcat: 8.2 ± 0.08 s⁻¹
  kcat/Km: 6200 ± 100 M⁻¹ s⁻¹
[17]
  Km: 0.94 ± 0.1 0.55 ± 0.039 mM
  kcat: 9.9 ± 0.4 s⁻¹
  kcat/Km: 11000 ± 600 M⁻¹ s⁻¹
[18]
  Km: 1400 ± 100 µM
  kcat: 4.2 ± 0.1 s⁻¹
  kcat/Km: 2900 ± 100 M⁻¹ s⁻¹
[19]
  Km: 2600 ± 200 µM
  kcat: 5.6 ± 0.2 s⁻¹
  kcat/Km: 2200 ± 100 M⁻¹ s⁻¹
[20]
  Km: 160 ± 5 µM
  kcat: 7.4 s⁻¹
  kcat/Km: 46000 M⁻¹ s⁻¹
[21]
  Km: 590 ± 20 µM
[22]
  Km: 470 ± 10 µM
  kcat: 4.2 ± 0.04 s⁻¹
  kcat/Km: 8900 ± 200 M⁻¹ s⁻¹
[23]
  Km: 110 ± 7 µM
  kcat: 8.7 ± 0.2 s⁻¹
  kcat/Km: 76000 ± 4000 M⁻¹ s⁻¹
[24]
  Km: 84000 ± 23000 µM
  kcat: 0.27 ± 0.03 s⁻¹
  kcat/Km: 3.2 ± 0.6 M⁻¹ s⁻¹
[25]
  Km: 300 ± 30 µM
  kcat: 7.5 ± 0.2 s⁻¹
  kcat/Km: 25000 ± 1000 M⁻¹ s⁻¹
[26]
  Km: 1400 ± 100 µM
  kcat: 6.4 ± 0.2 s⁻¹
  kcat/Km: 4700 ± 200 M⁻¹ s⁻¹
[27]
  kcat: 4.9 ± 0.05 s⁻¹
  kcat/Km: 7100 ± 100 M⁻¹ s⁻¹

Reference: publication PMC2668526 (Bioorganic & medicinal chemistry, 2008)
